These results are taken from FireProtDB (doi:10.1111/febs.12694).

The conditions of the data set: Halobacterium salinarum (strain ATCC 700922 / JCM 11081 / NRC-1), Thermal, transition: 2, whole UniProt chain shown.

Values joined by “and” are separate entries in the source; they are usually repeats but may differ in a detail not shown here. Identical values can stand only once.

B1: Bacteriorhodopsin wild type, P02945 (protein)
chain: MLELLPTAVEGVSQAQITGRPEWIWLALGTALMGLGTLYFLVKGMGVSDPDAKKFYAITTLVPAIAFTMYLSMLLGYGLTMVPFGGEQNPIYWARYADWLFTTPLLLLDLALLVDADQGTILALVGADGIMIGTGLVGALTKVYSYRFVWWAISTAAMLYILYVLFFGFTSKAESMRPEVASTFKVLRNVTVVLWSAYPVVWLIGSEGAGIVPLNIETLLFMVLDVSAKVGFGLILLRSRAIFGEAEAPEPSAGDGAAATSD
B1: the Tm (pH 3.5, DSC) is 76.6 °C; the Tm (pH 4, UV spectroscopy) was 69.2 °C and 67 °C; the midpoint of thermal melting (Tm) (pH 7, DSC) amounted to 98.2 °C; the melting temperature (Tm) (pH 7, UV spectroscopy) was found to be 90.5 °C; the Tm (pH 9, DSC) is 94.5 °C; the Tm (pH 9.5, UV spectroscopy, glycine buffer) was determined as 86 °C.

As usually defined, the Tm is the temperature at the midpoint of the melting transition.
